In article PMC6721605 one finds amount of dlpA in the IP fraction as percent of that in supernatant data, which are given here for one molecule.

In the test the target is dynamin-like protein B (dlpB) of Dictyostelium discoideum (Dictyostelium discoideum (endogenous in AX2)) (UniProt Q54MH8). The experiment in a line: co-IP; anti-dlpB antibodies on Dynabeads protein G; lysate of partially synchronized (mitotic) wild-type cells (10 °C 16 h, then 10 µM thiabendazole 3.5 h); lysis buffer 150 mM NaCl, 5 mM EGTA, 5 mM EDTA, 1% Triton X-100, 20 mM Tris-HCl pH 7.5; western blot with anti-dlpA and anti-dlpB. (In general: A western blot detects proteins with antibodies after separation by electrophoresis.)
Sequence of UniProt Q54MH8 (Q54MH8 whole entry): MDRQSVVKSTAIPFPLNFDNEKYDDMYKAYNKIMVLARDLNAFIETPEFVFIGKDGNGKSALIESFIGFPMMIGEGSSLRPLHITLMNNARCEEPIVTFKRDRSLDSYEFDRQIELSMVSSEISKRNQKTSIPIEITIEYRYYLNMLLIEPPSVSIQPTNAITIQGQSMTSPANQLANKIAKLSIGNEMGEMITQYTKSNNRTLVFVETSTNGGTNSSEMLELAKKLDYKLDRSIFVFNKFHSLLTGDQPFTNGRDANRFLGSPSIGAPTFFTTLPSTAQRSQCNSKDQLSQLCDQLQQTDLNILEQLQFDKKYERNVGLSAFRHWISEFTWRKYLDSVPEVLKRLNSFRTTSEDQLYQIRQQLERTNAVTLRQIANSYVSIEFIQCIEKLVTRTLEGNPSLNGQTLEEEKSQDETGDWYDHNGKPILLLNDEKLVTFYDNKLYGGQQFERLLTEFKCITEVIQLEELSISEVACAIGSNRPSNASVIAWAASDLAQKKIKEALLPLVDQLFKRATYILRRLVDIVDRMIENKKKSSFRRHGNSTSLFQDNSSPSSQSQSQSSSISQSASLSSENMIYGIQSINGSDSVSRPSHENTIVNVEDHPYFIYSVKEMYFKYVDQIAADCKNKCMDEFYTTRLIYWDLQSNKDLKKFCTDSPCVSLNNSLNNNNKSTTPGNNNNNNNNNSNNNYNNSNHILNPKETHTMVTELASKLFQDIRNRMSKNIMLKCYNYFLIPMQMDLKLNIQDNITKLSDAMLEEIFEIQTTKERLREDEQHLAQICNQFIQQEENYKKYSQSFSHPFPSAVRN

B1: dynamin-like protein A (dlpA) of Dictyostelium discoideum (natural protein)
chain: MSVFKKKDKSDDKKKKHDEETPQGTFQPASQSTSNTNLNSLASSVNNGASVGSTNGSTPNNSNGSTPTYNHNNSAEELEKQKKEEDEKRKKSELEAAAAVVAKKKEDEEKQRKEQVELERKRRDEEIRRTNAAAANAANKELNEQVEISSLEQMGKLDPSSTIHDMFSFFPNEVYNSYEKLQYFSRDLNTAVSHPEIVFVGPRSSGKSSLIEAFIGRALNIVGGGNIVGVGGSNANGCSKRVLYLQFTNNIDFEVPKVTIKKDNTIKEFDHDIIVSIEQLNENLAKRNQLTNDYIEEPIYVSIESRTTLNLTLIDSPGLLFDQSQAESNKIESIVSSLLRPSHRLIIAVESCSQDWKSMSMGQYLKKIDPELSRSTFVFTKFHHTVRGFSSTRDINKYLSGTVPDIKGFFVTLPNHQVRASYSEANRFQEKIYQAHKRDMHALEQLQYDKRYERTIGVAPLRRYILNIVWKSYQDTIPRILKHLRSKRQTAEATLNELQKQSSSLDSTKLRSIASNYTVTFLQITEKLLSGTSEGNPSANGQTLDEEKSQQGDCGEWVDAYKEAIYIDPEEWNIPYWSSKLYGGQQLERLMAEFKAVCDNSKISEVKMDDIATASGINKLNNIPNYAWAASDLTSLISRDTFVPLIEQLCERAMYIMKRLTDIADKVIDSRRKSRCIGSSPFGGNGLNNINSGGNNGININDRLSNTDMDSLDQYPFFTHHVKNLYYDFVHRAAKGCKEKCMDEFYSSRTIYWELTEHPDSSLPSIRNDHHETKTAVCQLATKLFDSIRQRITKNVLLKLYNFFLVPMQTDLWNEIQAQITCLSNEQLEQLFEVQATREQLKQEEKKQQQILEKYSQIDEQFLKAASLFCRPLSNPTPSA
Consider B1, for which the amount of dlpA in the IP fraction as percent of that in supernatant turned out to be 58%.
